Results taken from IntAct's records for PubMed 15908944.

Target: forh_dicdi forH (UniProt Q54N00)
Sequence (Q54N00 whole entry): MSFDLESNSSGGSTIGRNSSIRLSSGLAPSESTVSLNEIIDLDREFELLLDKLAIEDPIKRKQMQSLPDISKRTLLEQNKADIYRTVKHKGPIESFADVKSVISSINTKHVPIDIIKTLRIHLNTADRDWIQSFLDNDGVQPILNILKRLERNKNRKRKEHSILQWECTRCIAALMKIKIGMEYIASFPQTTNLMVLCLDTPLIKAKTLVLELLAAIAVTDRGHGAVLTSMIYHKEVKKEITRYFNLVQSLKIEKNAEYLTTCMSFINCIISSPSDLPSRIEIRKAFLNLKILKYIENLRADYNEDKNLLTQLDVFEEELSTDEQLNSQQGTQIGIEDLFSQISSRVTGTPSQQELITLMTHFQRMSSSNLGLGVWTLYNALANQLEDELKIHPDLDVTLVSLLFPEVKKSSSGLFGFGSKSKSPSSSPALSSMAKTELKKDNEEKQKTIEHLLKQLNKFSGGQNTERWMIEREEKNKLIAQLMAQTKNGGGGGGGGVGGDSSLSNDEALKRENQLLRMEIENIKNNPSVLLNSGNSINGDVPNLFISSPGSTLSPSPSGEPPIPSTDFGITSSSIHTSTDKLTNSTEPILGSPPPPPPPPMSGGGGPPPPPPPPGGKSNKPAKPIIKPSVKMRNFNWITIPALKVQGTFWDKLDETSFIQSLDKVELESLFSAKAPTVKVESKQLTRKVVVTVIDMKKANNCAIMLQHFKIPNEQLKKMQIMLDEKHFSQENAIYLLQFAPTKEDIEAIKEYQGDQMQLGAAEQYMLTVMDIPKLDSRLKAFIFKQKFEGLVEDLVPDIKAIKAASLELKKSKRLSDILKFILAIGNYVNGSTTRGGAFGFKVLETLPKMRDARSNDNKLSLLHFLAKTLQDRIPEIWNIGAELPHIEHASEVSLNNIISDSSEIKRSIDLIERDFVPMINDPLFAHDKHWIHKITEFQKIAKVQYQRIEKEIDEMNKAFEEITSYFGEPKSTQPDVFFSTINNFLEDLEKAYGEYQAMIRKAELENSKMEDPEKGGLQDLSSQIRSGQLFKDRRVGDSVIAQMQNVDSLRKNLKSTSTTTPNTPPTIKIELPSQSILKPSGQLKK

| Substance | effect of a mutation on the interaction |
| --- | --- |
| Rho-related protein rac1A (Dictyostelium discoideum (Slime mold)), P34144 G12V | decreasing interaction |
| Rho-related protein rac1A (Dictyostelium discoideum (Slime mold)), P34144 T17N | disrupting interaction |
